Data as given in the supplement of paper PMC12042874.
± gives the uncertainty stated by the source.

Test: amyloid nucleation score (Sup35N fusion, yeast selection) (log enrichment); library NNK1; higher = more nucleation; inactive = no reads after selection
How it was run: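 In psi-negative yeast, Sup35N fusions carrying peptides of 20 random codons were induced with 100 μM copper sulfate for 24 hours. The cells then grew 7 days at 30°C on medium lacking adenine and uracil, and plasmid inserts from input and output were Illumina-sequenced, excluding sequences with under 100 input reads. Nucleation score is the DiMSum log enrichment of output over input reads, centred on the mode score of non-aggregating sequences.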

Substance	amyloid nucleation score
FAYKVLTLMNKPEGKVQSDV	-1.41 ± 2.4
NTSSFVSTNWSGFPWSGSRY	2.02 ± 0.24
EFTVPRWTPTGHTSGSLEWV	0.22 ± 0.41
HYVYRGQLRGHACKGWSYFG	0.531 ± 0.51
NDTMWMSSGLSPCVSSPSLG	-0.252 ± 1.4
MPDFSWA	-0.115 ± 1.2
NLPVGLEAM	-0.327 ± 0.62
IYIGLLYVLCIGLASMCLTS	0.199 ± 0.84
WSFLDWWIRSRSLITVCVVS	-0.348 ± 0.46
SFFLLPMWLIVGSRGHQRRT	inactive
LDFNLICLYFLM	5.37 ± 0.072
FANLDSMNLIGKGFSMNYAL	-0.614 ± 0.97
NGFLHIRLRISALCELL	0.137 ± 0.57
FPYRGLLFTRLIPAAVGKGA	0.171 ± 0.74
ITNFMGGIRVYRCDASMKGG	0.395 ± 0.28
PQRRSHREKA	-0.557 ± 0.62
GGYGSIECFRSLVREKCCSV	0.086 ± 0.62
VYVDVSFPPPVFEWCGPQIT	0.392 ± 0.69
RPHSGVIDDL	0.349 ± 0.51
WLLWLTSSYKHQWMT	-1.7 ± 1.4
VTARTRSDS	0.55 ± 0.55
FLCMPL	0.266 ± 0.41
IIRFTTFPCFNVR	2.1 ± 0.13
SPKSPPL	-0.053 ± 0.62
SQDGISMMLGMSGWRGHASV	0.659 ± 1

Substance	amyloid nucleation score
NGLSMSLSCRYTLWVIFFSF	-0.157 ± 1.2
SVPVSTTDWNSGFLWAGGCS	0.513 ± 0.52
MVGCTYVCLADLFCKLLLMS	-0.015 ± 0.41
DKTKLLLTLRNWLSP	0.177 ± 0.56
IFLVCVSKN	0.601 ± 0.35
SMDNYIVNSSTVWPSSFSLK	4.73 ± 0.075
QRHITSL	-1.37 ± 1.9
DRITLLRYPWKSIAISIDEG	0.993 ± 0.36
NTLTMIHLIVLTELSLFK	0.297 ± 0.26
VQSIRRKVLETRQERVGAQR	0.04 ± 0.42
ENWATFEEYPT	0.243 ± 0.3
ENYTCRTWAPLSGPRIWVGS	0.661 ± 0.77
RRMVTCLQLIVRNLRSCACC	inactive
TLITWTLVSVGIWTMQS	1.56 ± 0.53
GCTGPHFVYTDGRMHWSGSS	-0.529 ± 0.49
CVSLCVHKDMIVIAPGTLTQ	4.81 ± 0.064
RWYVEPSSMFLSRLDGLFYK	-0.702 ± 1.9
FATMGSKKCSGARHSKRGSC	-0.26 ± 0.34
VECLAAVNYGEVHDPGVMDR	0.417 ± 0.71
VYFSSLVIFWYLFLYSFEYL	0.689 ± 0.48
VSPIMFAYSMSCMSFYGEHG	5.04 ± 0.1
NDLAKHLGFTVTF	0.011 ± 0.28
SDNVSRLRILDR	1.93 ± 0.47
PMTTWYSVFCAEFL	0.688 ± 0.32
EKYDGCIFEEKQMIAGAHGM	1.15 ± 0.88

Substance	amyloid nucleation score
VCIVPIVYPLFKFSVSNDPT	-0.202 ± 0.57
MTVCM	0.125 ± 1.4
SDKLTRFSTRVFR	-0.586 ± 0.39
TRTNLVAPCIMEVLSNVHRY	inactive
VFFGLTICFFVAHHCQERGS	2.54 ± 0.21
TDIFCP	-1.47 ± 1.7
DTSYGLQRVCKGR	0.429 ± 0.53
TDIHTVHRSNLVKVLRKGMN	-0.411 ± 0.53
NCNIMNFIDTCLCGAMYYFR	4.12 ± 0.078
SSSWTTCY	2.15 ± 0.1
VLYQRVRTGTTYGRARRLDV	-0.622 ± 1.7
KGGSPQYNGVTSMWWDRKFD	-0.255 ± 0.38
MRSLSVLFGIRTCLTVQWSK	0.276 ± 0.66
YVEKVSFTAIEWWRGQLQSV	0.565 ± 0.47
RRSPGYMDLCWNGWFGRAVR	0.207 ± 0.5
SNHDNFYPVVLCMESKYNIE	0.302 ± 0.34
VPILFRLLVNTSPYNGPLGL	-0.042 ± 0.56
AMNGVLVIGGV	-0.668 ± 1.7
LGKIAQLYSEEVEQKSGSGV	-0.539 ± 0.42
LIVIPKGG	1.58 ± 0.51
NGMVTLYR	0.977 ± 0.55
VKMYRAFIQGYGSLDRRQFP	0.45 ± 0.42
QMYFSFYLLCCLSSEFSI	3.02 ± 0.11
YWDKNFHYMCVARLFIVRLC	0.091 ± 0.7
ILSGRRDNSAERGRGGLWVM	-0.206 ± 1.2

Substance	amyloid nucleation score
SLCVWDSFNPERTGLFMRWI	0.99 ± 0.93
SCSPGTYSWFNWWYKSPGVE	-0.021 ± 0.65
MVVLRFAKCDSCMTSMAKIL	-0.045 ± 0.3
KFRDPYCKHRWAGLGKQSGD	0.052 ± 0.4
FIIISACSWLLSNWKTSGST	6.974 ± 0.056
VGYSPVVFSLNNICGSPFLM	5.277 ± 0.047
VIVFCCSEDNRRGQLKV	-1.49 ± 0.84
RYNCVDV	-0.765 ± 0.52
NGVVLLFFSDSADMRLCAAM	0.319 ± 0.58
AYTLRYTFRYKYWLRYRLAG	0.861 ± 0.58
YTWQYAYLCQVMTSFYSGSI	-0.269 ± 0.47
FDVIGSCVGDQWTAGMDWTL	0.429 ± 0.51
KDRMITPKPTVVTHLVVSYG	-0.23 ± 0.22
GPFIVIPK	-0.149 ± 0.64
RSYSNPLSSVSLSNYSFGVY	-0.353 ± 0.36
NKSCDGVRLCREARKALEPC	0.34 ± 0.52
YDPRIGLVSVGNVRNNSV	-1.48 ± 1.4
IIMVRLFSRNGVEDC	1.61 ± 0.12
NYASKLYFFLVVMSRFNRKG	-0.115 ± 1.7
PSNLRDWHSSQFNREEEDAY	0.467 ± 0.46
LSFIKRMTMNMLTKLD	1.68 ± 0.13
YAPLLLSWAYFGV	1.31 ± 0.25
RMLTARNGLGMMRL	-0.162 ± 1.1
RDFWVSRTALMGGYWCWL	-0.175 ± 0.35
GQPVFSLDCIYYLLYCFDAT	0.595 ± 0.6

Substance	amyloid nucleation score
VVIVGAGIPWILGESAVFRC	0.218 ± 0.36
KCGRVWHVFFVVSYQGVGST	1.31 ± 0.46
LNCPFYIFFLLHTVSA	6.608 ± 0.065
MYFIVCTSWGSVVDRGIH	inactive
AVLSPGWWESLYPRRVVHSC	-0.354 ± 0.54
FRHVQSMRACFLKSKYGATI	0.195 ± 0.84
FYGMDLSVSRFF	0.031 ± 0.47
GPSLFG	0.121 ± 0.37
NKKKSLRWKGTGNGVPLVVQ	-0.399 ± 0.86
ADKTGGPVTNITFLAWPWWG	3.95 ± 0.13
AMKVFYDMWKTACY	-0.507 ± 0.7
HFTCRTLITGSYSVTTLNVS	5.23 ± 0.061
LSNALS	0.8 ± 0.81
YGYLTITPVQVYIQRTSTWT	4.16 ± 0.12
VYTKYICWGCVNAQRFDHGT	8.269 ± 0.049
ENIPARRLKCPFNTP	-0.511 ± 1.2
MEVISRSVLSSLSWFGTVEE	0.598 ± 0.5
CLLVLLLGLRLPYRPRLVFV	0.463 ± 0.79
GKLDCVKVLNVHCP	0.527 ± 0.61
MDWNQGVAGATMIYLCFNNN	7.881 ± 0.064
VSTSHCTSFVFNIYCKYDSR	8.542 ± 0.052
YNNSLWPIRLVRSKQCLSWT	0.215 ± 0.54
QGLNNMHSGVVLKMLT	1.22 ± 0.54
NAIGILRHLTRMFPFD	0.747 ± 0.44
KCMEIILVLRVVRKWGSGGM	0.654 ± 0.97

Substance	amyloid nucleation score
NFLPVLVCQPLSWLLIPLLY	0.309 ± 0.31
MFSYDFGMCGFYN	0.971 ± 0.29
CSCVCETEGRLSSSCYHHMP	0.184 ± 0.38
ILCKVPVVASSNGS	-0.35 ± 0.5
ASSGPAIYFNGRQRTFYYSD	1.05 ± 0.29
ADTCPFCDHWTQSSNRWQEL	0.692 ± 0.41
ATHPDSSMYNRTTSSNFMWF	-0.573 ± 0.75
KSDVAARVCDER	0.526 ± 0.31
WGSCISFRNRGMCLILDSVC	0.037 ± 0.37
FYTISFLAIIATENIFCSSS	4.42 ± 0.053
SRRYLRVGCKVNVHTFGLYL	-0.502 ± 1
LNYFLLLMFQCDGRILFRFY	0.652 ± 0.84
LYITVIVHNWVLGWKRVLLE	1.64 ± 0.71
ILWLVRSGVSYQQGGDSTPV	0.919 ± 0.28
ICEVSLCYR	0.2 ± 1
CAVLLVIGTAANEMCARRLI	-0.197 ± 1.9
ILCCLMSFWDVRKFFFNQKA	-0.722 ± 0.41
LSKYP	0.383 ± 0.35
LYFITTM	1.18 ± 0.59
RNELTVFGLISPWESVFNLG	inactive
ICHCGRHAVHRRHTCHWTLG	inactive
SCSYLSKYTYRREMVYGNEV	0.002 ± 0.22
HCYHGRGADR	0.181 ± 0.74
GITIITFIDGSLLGRDFPCW	2.14 ± 0.26
FLICVTSNWLGTYCRVERFW	0.023 ± 0.35

Substance	amyloid nucleation score
YLFKSISCNSGRTRNQPKGQ	-0.195 ± 1.4
RYVTDSGVGSIPRYLIKCSR	-0.111 ± 0.42
LKLYLYTLECTFDELDYGD	0.161 ± 0.41
VVVCAVHDDYSINRAIEDER	-0.183 ± 0.4
CGAELRIGGCSGPGGMFQTR	0.031 ± 0.27
VKSSFNMSARVVLDENIHER	-0.067 ± 0.69
FVYFTGIMIC	-0.46 ± 1
FVGTKQWMARGLVNDVKPVH	-0.161 ± 0.45
KFVTVKTRQLKSAGASIVSG	-0.119 ± 0.69
LMNFSNWDELR	-1.26 ± 2.4
QYDFQ	-0.532 ± 0.88
HTEYRKYRVCTFLK	0.826 ± 0.4
INDRVDGSVIEMSLCRYG	1.19 ± 0.8
YIASMVCDIRKPHPCLVYVL	0.149 ± 0.42
RIMLFFCCSSKVFDFPVLLM	6.4 ± 0.064
SSLVVWNTQSSTLMTLLSYS	-0.915 ± 0.49
LGQGRLYILYFMSMYLDMMG	0.748 ± 0.47
PSFSDLSHALGSSLESWGYR	0.021 ± 0.8
KSVLQFETMGFVDLYFSFNL	5.49 ± 0.091
IFALWTHKTPRQIAPLGTQK	-0.835 ± 1.3
